Results reported in patent US20220135665A1.

Target: recombinant human VEGF165 protein (human) (UniProt P15692)
Assay: cell-based or functional assay

Sequence of Conbercept (Fc fusion) (chain): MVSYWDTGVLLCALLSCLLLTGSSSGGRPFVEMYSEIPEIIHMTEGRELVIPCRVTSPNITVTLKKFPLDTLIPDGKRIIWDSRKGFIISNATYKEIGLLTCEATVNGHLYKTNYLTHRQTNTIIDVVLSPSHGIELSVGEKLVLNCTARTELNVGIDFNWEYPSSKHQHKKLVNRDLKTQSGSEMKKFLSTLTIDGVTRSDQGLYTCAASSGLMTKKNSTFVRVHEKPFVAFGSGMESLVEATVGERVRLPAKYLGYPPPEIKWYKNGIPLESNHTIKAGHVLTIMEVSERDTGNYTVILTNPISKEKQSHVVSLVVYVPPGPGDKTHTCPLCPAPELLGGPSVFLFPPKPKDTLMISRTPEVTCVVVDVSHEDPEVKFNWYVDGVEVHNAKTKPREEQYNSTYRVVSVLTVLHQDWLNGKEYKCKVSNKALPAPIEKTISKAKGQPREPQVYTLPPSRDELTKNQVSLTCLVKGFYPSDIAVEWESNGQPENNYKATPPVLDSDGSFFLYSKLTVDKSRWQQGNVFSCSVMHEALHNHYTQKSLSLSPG
Sequence of EYLEA (Aflibercept) (Fc fusion) (chain): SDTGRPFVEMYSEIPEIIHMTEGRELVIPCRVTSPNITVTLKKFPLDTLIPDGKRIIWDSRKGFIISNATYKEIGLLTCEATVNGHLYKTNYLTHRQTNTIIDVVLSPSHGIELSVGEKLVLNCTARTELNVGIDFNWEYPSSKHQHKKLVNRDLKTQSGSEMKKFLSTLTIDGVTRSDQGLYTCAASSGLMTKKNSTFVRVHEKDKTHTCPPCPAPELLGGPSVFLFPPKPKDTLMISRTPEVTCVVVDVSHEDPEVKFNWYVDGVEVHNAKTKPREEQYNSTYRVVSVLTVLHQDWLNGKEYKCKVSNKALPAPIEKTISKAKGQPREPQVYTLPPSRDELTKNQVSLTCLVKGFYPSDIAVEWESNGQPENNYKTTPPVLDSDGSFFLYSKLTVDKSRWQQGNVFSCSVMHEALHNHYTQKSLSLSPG

EC50(nM), neutralization of HUVEC proliferation, VEGF165 at 10 ng/mL | EC50(nM), neutralization of HUVEC proliferation, VEGF165 at 100 ng/mL | EC50(nM), neutralization of HUVEC proliferation, VEGF165 at 1000 ng/mL | Maximum neutralization rate (%), VEGF165 at 10 ng/mL | Maximum neutralization rate (%), VEGF165 at 100 ng/mL | Maximum neutralization rate (%), VEGF165 at 1000 ng/mL | Substance
0.18 nM | 2.86 nM | 29 nM | 102% | 99.7% | 108% | Conbercept (Fc fusion)
0.15 nM | 2.56 nM | 32.4 nM | 92.7% | 89.6% | 76.7% | EYLEA (Aflibercept) (Fc fusion)
